Substitutions are numbered along the chain they refer to. In names and notes the source's numbering stands. Where two headings read alike, the source gives them in different places.
Key:
[1] = molecular target: T1, FcgRIIb (human, UniProt P31994 43-217); assay: SPR (Biacore), antibody captured on chip, FcgR extracellular domain as analyte
T1 construct: extracellular domain; Expressed in FreeStyle293 cells and purified; used as analyte in Biacore; also called FcγRIIb; CD32B; not shown: His tag attached to the C terminus
T1 sequence (looked up): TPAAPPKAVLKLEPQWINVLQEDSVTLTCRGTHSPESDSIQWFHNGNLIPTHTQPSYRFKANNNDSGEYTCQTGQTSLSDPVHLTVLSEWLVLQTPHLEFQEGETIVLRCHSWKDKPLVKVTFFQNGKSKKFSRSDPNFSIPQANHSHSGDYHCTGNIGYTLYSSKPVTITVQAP
Method: (§1) Analysis of interaction between obj ective antibody and the FcγR was carried out using Biacore T100 (GE Healthcare), Biacore T200, Biacore A100, and Biacore 4000. HBS-EP+ (GE Healthcare) was used as the running buffer, and the measurement temperature was set to 25° C. Chips produced by immobilizing the antigen peptide by the amine coupling method to a Series S sensor Chip CM5 (GE Healthcare), chips produced by allowing preliminarily biotinylated antigen peptides to interact with and immobilize onto a Series S Sensor Chip SA (certified) (GE Healthcare), chips produced by immobilizing Protein L (ACTIGEN, BioVision) to Series S Sencor Chip CM5 (GE Healthcare), or chips produced by immobilizing Protein A/G (Thermo Scientific) to Series S Sencor Chip CM5 (GE Healthcare) were used. Antibodies of interest were captured onto these chips, and allowed to interact to each FcγR diluted with running buffer. To regenerate and repeatedly use the chip, the antibodies captured onto the chip were washed off by reacting 10 mM glycine-HCl, pH 1.5.

[2] = molecular target: T2, FcgRIIIa F (human, UniProt P08637 17-208); assay: as above
T2 construct: extracellular domain; also called FcγRIIIa F; not shown: His tag attached to the C terminus
Method: as §1

[3] = molecular target: T3, FcgRIIa R (human, UniProt P12318 34-217); assay: as above
T3 construct: extracellular domain; also called FcγRIIa R; FcγRIIa type R; not shown: His tag attached to the C terminus
T3 sequence (looked up): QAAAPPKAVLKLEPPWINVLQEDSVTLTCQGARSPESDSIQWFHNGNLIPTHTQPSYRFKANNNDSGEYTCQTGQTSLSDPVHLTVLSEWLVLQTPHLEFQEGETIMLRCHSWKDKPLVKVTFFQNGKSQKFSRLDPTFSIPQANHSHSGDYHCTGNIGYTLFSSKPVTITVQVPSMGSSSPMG
Method: as §1

[4] = molecular target: T4, FcgRIa (human, UniProt P12314 16-292); assay: as above
T4 construct: extracellular domain; Expressed in FreeStyle293 cells and purified; used as analyte in Biacore; also called FcγRIa; FcγRI; not shown: His tag attached to the C terminus
Method: as §1
T4 sequence (P12314 16-292): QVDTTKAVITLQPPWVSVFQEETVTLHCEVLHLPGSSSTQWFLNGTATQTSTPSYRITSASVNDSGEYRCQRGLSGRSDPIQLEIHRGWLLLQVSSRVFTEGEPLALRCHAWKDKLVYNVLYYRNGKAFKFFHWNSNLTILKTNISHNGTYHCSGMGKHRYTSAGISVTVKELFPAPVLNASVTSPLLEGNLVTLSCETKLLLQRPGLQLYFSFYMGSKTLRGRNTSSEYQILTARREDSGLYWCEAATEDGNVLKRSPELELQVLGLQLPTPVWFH

[5] = molecular target: T5, FcgRIIa H (human, UniProt P12318 34-217); assay: as above
T5 construct: extracellular domain; also called FcγRIIa H; FcγRIIa type H; not shown: His tag attached to the C terminus
T5 sequence (looked up): T3 sequence (looked up) with R134H
Method: as §1

[6] = molecular target: T6, FcgRIIIa V (human, UniProt P08637 17-208); assay: as above
T6 construct: extracellular domain; also called FcγRIIIa V; not shown: His tag attached to the C terminus
Method: as §1

[7] = molecular target: T1, FcgRIIb; assay: as above; remark: listed apart in the source
Method: (§2) H240-Kn113 (SEQ ID NO: 92) resulting from introduction of Y234E and Y235N into H240-Kn072, H240-Kn115 (SEQ ID NO: 93) resulting from introduction of S239M into H240-Kn072, and H240-Kn125 (SEQ ID NO: 94) resulting from introduction of Y235Q and S239M into H240-Kn072 were prepared according to the method described in Reference Example 1.
as §1

[8] = molecular target: T2, FcgRIIIa F; assay: as above; remark: listed apart in the source
Method: as §2, §1

[9] = molecular target: T3, FcgRIIa R; assay: as above; remark: listed apart in the source
Method: as §2, §1

[10] = molecular target: T4, FcgRIa; assay: as above; remark: listed apart in the source
Method: as §2, §1

[11] = molecular target: T5, FcgRIIa H; assay: as above; remark: listed apart in the source
Method: as §2, §1

[12] = molecular target: T6, FcgRIIIa V; assay: as above; remark: listed apart in the source
Method: as §2, §1

[13] = molecular target: T7, FcgRIIaH (human, UniProt P12318 34-217); assay: SPR (Biacore); KD of H240-Kn120/H240-Hl068/L73-k0 divided by KD of the sample
T7 construct: extracellular domain; H131 allotype; also called FcγRIIa H; FcgRIIa type H; not shown: C-terminal His tag
T7 sequence (looked up): T3 sequence (looked up) with R134H
Method: (§3) The variants described above were assessed for their binding to FcgR according to the method described in Reference Example 8.
as §1

[14] = molecular target: T8, FcgRIIaR (human, UniProt P12318 34-217); assay: as above
T8 construct: extracellular domain; R131 allotype; also called FcγRIIa R; FcgRIIa type R; not shown: C-terminal His tag
T8 sequence (looked up): T3 sequence (looked up)
Method: as §3, §1

[15] = molecular target: T9, FcgRIIIaF (human, UniProt P08637 17-208); assay: as above
T9 construct: extracellular domain; F158 allotype; also called FcγRIIIa F; not shown: C-terminal His tag
Method: as §3, §1

[16] = molecular target: T10, FcgRIIIaV (human, UniProt P08637 17-208); assay: as above
T10 construct: extracellular domain; V158 allotype; also called FcγRIIIa V; not shown: C-terminal His tag
Method: as §3, §1

[17] = molecular target: T11, FcgRIIb (human, UniProt P31994 43-217); assay: as above
T11 construct: extracellular domain; also called FcγRIIb; CD32B; not shown: C-terminal His tag
T11 sequence (looked up): T1 sequence (looked up)
Method: as §3, §1

[18] = molecular target: T7, FcgRIIaH; assay: SPR (Biacore), antibody captured on chip, FcgR as analyte
Method: as §3, §1

[19] = molecular target: T8, FcgRIIaR; assay: as above
Method: as §3, §1

[20] = molecular target: T9, FcgRIIIaF; assay: as above
Method: as §3, §1

[21] = molecular target: T10, FcgRIIIaV; assay: as above
Method: as §3, §1

[22] = molecular target: T11, FcgRIIb; assay: as above
Method: as §3, §1

[23] = molecular target: T12, FcgRIa (human, UniProt P12314 16-292); assay: as above
T12 construct: extracellular domain; also called FcγRIa; FcγRI; not shown: C-terminal His tag
Method: as §3, §1
T12 sequence (P12314 16-292): as above

T9 sequence (P08637 17-208): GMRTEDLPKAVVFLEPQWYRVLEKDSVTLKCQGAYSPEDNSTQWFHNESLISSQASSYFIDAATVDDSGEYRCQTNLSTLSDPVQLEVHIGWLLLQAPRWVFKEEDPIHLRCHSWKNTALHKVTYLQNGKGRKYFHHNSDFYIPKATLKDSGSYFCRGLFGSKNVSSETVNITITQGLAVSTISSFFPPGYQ
T2 sequence (P08637 17-208): as above
T10 sequence (P08637 17-208 F176V limits assumed): as the sequence (P08637 17-208) above, with F160V counted along it
T6 sequence (P08637 17-208 F176V limits assumed): as the sequence (P08637 17-208) above, with F160V counted along it

B1: H240-G1d/L73-k0 (antibody, human IgG1, kappa)
heavy: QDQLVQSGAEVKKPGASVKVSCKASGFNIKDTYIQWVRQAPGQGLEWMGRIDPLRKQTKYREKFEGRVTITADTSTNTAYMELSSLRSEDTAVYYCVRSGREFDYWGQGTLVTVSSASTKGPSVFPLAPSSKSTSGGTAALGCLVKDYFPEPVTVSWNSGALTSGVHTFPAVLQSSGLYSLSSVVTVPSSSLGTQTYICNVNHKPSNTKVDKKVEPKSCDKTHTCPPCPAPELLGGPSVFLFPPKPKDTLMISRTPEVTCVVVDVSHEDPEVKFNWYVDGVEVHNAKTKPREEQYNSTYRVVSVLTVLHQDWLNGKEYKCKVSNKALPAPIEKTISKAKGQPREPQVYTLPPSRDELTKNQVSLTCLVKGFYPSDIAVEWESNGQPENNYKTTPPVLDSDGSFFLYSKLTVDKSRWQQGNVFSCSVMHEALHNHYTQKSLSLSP
light: DIQMTQSPSSLSASVGDRVTITCRASQDIHKYIAWYQQKPGQAPRLLIQYTSTLQPGVPSRFSGSGSGTDYTFTISSLQPEDIATYYCLQYEQLRTFGGGTKVEIKRTVAAPSVFIFPPSDEQLKSGTASVVCLLNNFYPREAKVQWKVDNALQSGNSQESVTEQDSKDSTYSLSSTLTLSKADYEKHKVYACEVTHQGLSSPVTKSFNRGEC
notes: Anti-EREG native IgG1 (G1d constant region lacks the C-terminal Gly and Lys); also called native IgG1
- Kd [1]: 6100 nM
- Kd [2]: 1400 nM
- Kd [3]: 880 nM
- Kd [4]: 0.23 nM
- Kd [5]: 660 nM
- Kd [6]: 310 nM
- Kd [7]: 6000 nM
- Kd [8]: 1400 nM
- Kd [9]: 880 nM
- Kd [10]: 0.23 nM
- Kd [11]: 660 nM
- Kd [12]: 310 nM

B2: H240-A5E/H240-B3E/L73-k0 (antibody, human IgG1, kappa)
heavy 1: not shown
heavy 2: not shown
light: B1 light
notes: Anti-EREG IgG1 control: H240-G1dE with D356K/H435R in one H chain and K439E in the other, no FcgR-related alterations
- Kd [1]: 4300 nM
- Kd [2]: 1600 nM
- Kd [3]: 940 nM
- Kd [4]: 0.61 nM
- Kd [5]: 910 nM
- Kd [6]: 330 nM

B3: H240-Kn120/H240-Hl086/L73-k0 (antibody, human IgG1, kappa)
heavy 1: QDQLVQSGAEVKKPGASVKVSCKASGFNIKDTYIQWVRQAPGQGLEWMGRIDPLRKQTKYREKFEGRVTITADTSTNTAYMELSSLRSEDTAVYYCVRSGREFDYWGQGTLVTVSSASTKGPSVFPLAPSSKSTSGGTAALGCLVKDYFPEPVTVSWNSGALTSGVHTFPAVLQSSGLYSLSSVVTVPSSSLGTQTYICNVNHKPSNTKVDKKVEPKSCDKTHTCPPCPAPEYYWGPMVFLFPPKPKDTLMISRTPEVTCVVVDVSDEDPEVKFNWYVDGVEVHNAKTKPREEQYNATYRVVSVLTVLHQDWLNGKEYKCKVSNKDLPAPIEKTISKAKGQPREPQVCTLPPSRDELTKNQVSLWCLVKGFYPSDIAVEWESNGQPENNYKTTPPVLDSDGSFFLYSKLTVDKSRWQQGNVFSCSVMHEALHNHYTQKSLSLSP
heavy 2: QDQLVQSGAEVKKPGASVKVSCKASGFNIKDTYIQWVRQAPGQGLEWMGRIDPLRKQTKYREKFEGRVTITADTSTNTAYMELSSLRSEDTAVYYCVRSGREFDYWGQGTLVTVSSASTKGPSVFPLAPSSKSTSGGTAALGCLVKDYFPEPVTVSWNSGALTSGVHTFPAVLQSSGLYSLSSVVTVPSSSLGTQTYICNVNHKPSNTKVDKKVEPKSCDKTHTCPPCPAPELLIGPSVFLFPPKPKDTLMISRTPEVTCVVVDVSHEEPEVKFNWYVDGVEVHNAKTKPREEQYNSTYRVVSVLTVLHQDWLNGKEYKCKVSNDALPKPIEETISKAKGQPREPQVYTLPPSRCELTKNQVSLSCAVKGFYPSDIAVEWESNGQPENNYKTTPPVLDSDGSFFLVSKLTVDKSRWQQGNVFSCSVMHEALHNHYTQKSLSLSP
light: B1 light
notes: Heterodimerized anti-epiregulin antibody; G236I in the Hl068 chain; also called H240-Kn120/H240-HI086/L73-k0
- Relative KD [13]: 0.8
- Relative KD [14]: 0.9
- Relative KD [15]: 0.1
- Relative KD [16]: 0
- Relative KD [17]: 0.3
- Kd [18]: 53 nM
- Kd [19]: 22 nM
- Kd [20]: 33 nM
- Kd [21]: 14 nM
- Kd [22]: 480 nM
- Kd [23]: 1.4 nM

B4: H240-Kn120/H240-Hl085/L73-k0 (antibody, human IgG1, kappa)
heavy 1: B3 heavy 1
heavy 2: B3 heavy 2 with I235V
light: B1 light
notes: Heterodimerized anti-epiregulin antibody; G236V in the Hl068 chain; also called H240-Kn120/H240-HI085/L73-k0
- Relative KD [13]: 0.9
- Relative KD [14]: 1.1
- Relative KD [15]: 0.1
- Relative KD [16]: 0.1
- Relative KD [17]: 0.4
- Kd [18]: 46 nM
- Kd [19]: 19 nM
- Kd [20]: 23 nM
- Kd [21]: 6.2 nM
- Kd [22]: 390 nM
- Kd [23]: 87 nM

Source: patent US20180155451A1 (published 2018)
